US12295997B2, “Prostate neoantigens and their uses” (Janssen Biotech, Inc., priority 2020, dated 2025)

B1: PVAIKPGTGPPNNSSIHGGSKRSENSYCRDLRGQLRAICCSSYSHDRHTTEERGSRGRHVWRIRRLHTSGLPCCCHSGPHPRRLPDILRLVTSTKTDHTNTTEGTLDYL (peptide, listed as Homo sapiens)
chain: PVAIKPGTGPPNNSSIHGGSKRSENSYCRDLRGQLRAICCSSYSHDRHTTEERGSRGRHVWRIRRLHTSGLPCCCHSGPHPRRLPDILRLVTSTKTDHTNTTEGTLDYL
notes: RBM47 alternative splicing
B2: PSGRRTKRLVTLRSGCAIQCWHPRAGPVPSALPHTERPPRLVRGAADPRTVTLGRSPAVMPRAPA (peptide, listed as Homo sapiens)
chain: PSGRRTKRLVTLRSGCAIQCWHPRAGPVPSALPHTERPPRLVRGAADPRTVTLGRSPAVMPRAPA
notes: CCNF alternative splicing
B3: LWFQSSELSPTGAPWPSRRPTWRGTTVSPRTATSSARTCCGTKWPSSQEAALGLGSGLLRFSCGTAAIR (peptide, listed as Homo sapiens)
chain: LWFQSSELSPTGAPWPSRRPTWRGTTVSPRTATSSARTCCGTKWPSSQEAALGLGSGLLRFSCGTAAIR
notes: NME4->DECR2 gene fusion
B4: WGMELAASRRFSWDHHSAGGPPRVPSVRSGAAQVQPKDPLPLRTLAGCLARTAHLRPGAESLPQPQLHCT (peptide, listed as Homo sapiens)
chain: WGMELAASRRFSWDHHSAGGPPRVPSVRSGAAQVQPKDPLPLRTLAGCLARTAHLRPGAESLPQPQLHCT
notes: INCA1->CAMTA2 gene fusion
B5: FVSLTAIQMASSATPWGRWPVATPTAACPRRRPSSLPTGGDSASKKPISRRAPWQPWACPGRSVNSAAPRAWCPPATTPRTQSPSRDLRPRCLSSWSS (peptide, listed as Homo sapiens)
chain: FVSLTAIQMASSATPWGRWPVATPTAACPRRRPSSLPTGGDSASKKPISRRAPWQPWACPGRSVNSAAPRAWCPPATTPRTQSPSRDLRPRCLSSWSS
notes: FASN alternative splicing
B6: HYKLIQQPISLFSITDRLHKTFSQLPSVHLCSITFQWGHPPIFCSTNDICVTANFCISVTFLKPCFLLHEASASQ (peptide, listed as Homo sapiens)
chain: HYKLIQQPISLFSITDRLHKTFSQLPSVHLCSITFQWGHPPIFCSTNDICVTANFCISVTFLKPCFLLHEASASQ
B7: LLEPFRRGEPGPRGLLSGSSRGGEGPGRSIEAAPATPLPCCRKNPCRPQPSRFLPPRVLLVIILPKLDCPKLGF (peptide, listed as Homo sapiens)
chain: LLEPFRRGEPGPRGLLSGSSRGGEGPGRSIEAAPATPLPCCRKNPCRPQPSRFLPPRVLLVIILPKLDCPKLGF
notes: AMACR alternative splicing
B8: LLNAEDYRCAIHSKEIYLLSPSPHQAMDKFSLCCINCNLCLHVFLLLLFFQNKDVWLISNIILLWIYGGI (peptide, listed as Homo sapiens)
chain: LLNAEDYRCAIHSKEIYLLSPSPHQAMDKFSLCCINCNLCLHVFLLLLFFQNKDVWLISNIILLWIYGGI
notes: TM9SF3 alternative splicing
B9: YAYKDFLWCFPFSLVFLQEIQICCHVSCLCCICCSTRICLGCLLELFLSRALRALHVLWNGFQLHCQ (peptide, listed as Homo sapiens)
chain: YAYKDFLWCFPFSLVFLQEIQICCHVSCLCCICCSTRICLGCLLELFLSRALRALHVLWNGFQLHCQ
B10: FGLTTLAGRSSHGTSGLRAATHTKSGDGGQGAARQCEKLLELARATRPWGRSTSASSRWTHRGYMCPPRCAVACW (peptide, listed as Homo sapiens)
chain: FGLTTLAGRSSHGTSGLRAATHTKSGDGGQGAARQCEKLLELARATRPWGRSTSASSRWTHRGYMCPPRCAVACW
notes: PEX10 alternative splicing
B11: QNLQNGGGSRSSATLPGRRRRRWLRRRRQPISVAPAGPPRRPNQKPNPPGGARCVIMRPTWPGTSAFT (peptide, listed as Homo sapiens)
chain: QNLQNGGGSRSSATLPGRRRRRWLRRRRQPISVAPAGPPRRPNQKPNPPGGARCVIMRPTWPGTSAFT
notes: ZFHX3 E763Sfs*61
B12: LQAAASGQGKQGVPCPWGCCAYAESPRALISGDAPSQVEREVPGPCLNTHSLSHRSPQLPGLPHPKQPSV (peptide, listed as Homo sapiens)
chain: LQAAASGQGKQGVPCPWGCCAYAESPRALISGDAPSQVEREVPGPCLNTHSLSHRSPQLPGLPHPKQPSV
notes: TONSL alternative splicing
B13: KGSVERRSVSLGHPAEGWAWAERSLQPGMTTANTGCLSFHHRGCLLPVLPKLHCGLGGLPLVRAKEIKRVQRAGESSLPVKGLLTVASAVIAVLWGRPSEVTGENEAQHD (peptide, listed as Homo sapiens)
chain: KGSVERRSVSLGHPAEGWAWAERSLQPGMTTANTGCLSFHHRGCLLPVLPKLHCGLGGLPLVRAKEIKRVQRAGESSLPVKGLLTVASAVIAVLWGRPSEVTGENEAQHD
notes: ILDR1 alternative splicing
B14: KMRAIQAEGGHGQACCGGAWGWAPGDGGPQGMLTHTLPTLGFQSAWTWRREDADRAWRTPKACASRRWSI (peptide, listed as Homo sapiens)
chain: KMRAIQAEGGHGQACCGGAWGWAPGDGGPQGMLTHTLPTLGFQSAWTWRREDADRAWRTPKACASRRWSI
notes: LRRC45 alternative splicing

Assays:
[1] = system: CD8+ T cells in PBMCs from human patients with metastatic castrate-resistant prostate cancer; experiment: Patient PBMC restimulation assay (in vitro immunogenicity, TNFα/IFNγ intracellular flow cytometry); format: cell-based; conditions: 9-mer peptide
Method: PBMCs from human patients with metastatic castrate-resistant prostate cancer were thawed using media (RPMI 1640 supplemented with Glutamax, 10% HI FBS, and 1× Sodium Pyruvate). Cells were counted and plated in a 96 well round bottom microplate at a concentration of 250,000 viable cells per well. Lyophilized peptides were solubilized in 100% DMSO and diluted in media to 10 μg/mL. Neoantigen peptides were added in equal volume to PBMCs for a final concentration of 5 μg/mL. CEF Peptide Pool “Plus” (Cellular Technologies, Ltd.) was utilized as a positive control and DMSO at the same final concentration as the experimental peptides was utilized as a negative control. Human IL-15 (Peprotech) was added to all wells at final concentration of 10 ng/mL.
Plates were incubated at 37° C. (5% CO2) for a total of 13 days. Media was refreshed every 2 days with IL-15 (10 ng/mL final concentration) and IL-2 (R&D systems, 10 IU/mL final concentration). On day 12, PBMCs were re-stimulated with identical experimental peptides or controls, at same concentration as peptide stimulation on Day 1. After 1-hour incubation, protein Inhibitor Cocktail (eBioscience) was added to every well and plate was incubated overnight.
On day 13, cells were stained for intracellular flow cytometry analysis. The cells were washed with PBS and stained with Live/Dead Fixable Aqua Dead Cell stain (Thermo-Fisher). Following the live/dead stain, cells were blocked using Biotin-Free Fc Receptor Blocker (Accurate Chemical & Scientific Corp). Extracellular cellular flow panel ([…] per well in 50 μL) consisted of CD3 PerCP-Cy5.5 (Biolegend), CD4 BV421 (Biolegend), and CD8 APC-Cy7 (Biolegend). After extracellular staining, cells were fixed using Foxp3/fTranscription Factor Staining Buffer Set (eBioscience) and stained for intracellular proteins (1:50 dilution) using TNFα FITC (R&D Systems) and IFNγ BV785 (Biolegend). Cells were washed and resuspended in stain buffer and analyzed using a BD Celesta flow cytometer.
Flow cytometry cell staining analysis was completed using FlowJo v10. Cells were gated on live, singlet, CD3+ cells. The CD8+ T cells were analyzed for TNFα/IFNγ expression and the frequency of double positive TNFα/IFNγ CD8+ T cells was recorded. Responses were assessed to be positive when the frequency of double positive TNFα/IFNγ CD8+ T cells due to stimulation with an experimental peptide was increased greater than or equal to 2-fold over the DMSO only negative control for that patient. Peptides were analyzed in 1 to 7 patient samples.
The 9 mer fragments shown in Table 13 were assessed for their ability to activate T cells using the Patient PBMC restimulation assay described in Example 1 using TNFα and IFNγ production by CD8^+ T cells as a readout. Self-antigens shown in Table 15 were also used in the assays. […] PBMCs from ten patients were evaluated.

[2] = system: CD8+ and CD4+ T cells (autologous CD3+ Pan-T cells isolated from human normal PBMCs); experiment: Exogenous autologous normal donor restimulation assay (15-mer overlapping peptide pools on CD1c+ dendritic cells, TNFα/IFNγ flow cytometry); format: cell-based; conditions: 15-mer overlapping peptide pool; for Max. Fold Change over background CD4+ TNFαINFγ double positive DP / Max. Fold Change over background CD8+ TNFαINFγ double positive DP / Max. Frequency of CD4+ TNFαINFγ DP / Max. Frequency of CD8+ TNFαINFγ DP: Table 28, additional neoantigens, highest across normal donors; for Maximum Fold Change Over Background CD4+ cells / Maximum Fold Change Over Background CD8+ cells / Maximum Frequency of TNFα/IFNγ Double Positive CD4+ T cells / Maximum Frequency of TNFα/IFNγ Double Positive CD8+ T cells: Table 25; for Maximum Fold Change Over Background CD4+ cells: TNFα+IFNγ+ CD4+ T cells; for Maximum Fold Change Over Background CD4+ cells / Maximum Fold Change Over Background CD8+ cells: highest fold change over negative control across normal donors; for Maximum Fold Change Over Background CD8+ cells: TNFα+IFNγ+ CD8+ T cells; for Maximum Frequency of TNFα/IFNγ Double Positive CD4+ T cells / Maximum Frequency of TNFα/IFNγ Double Positive CD8+ T cells: highest frequency across normal donors
Procedure, shortened: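 Autologous CD3+ Pan-T cells from normal donors were co-cultured 12 days with irradiated CD1c+ DCs pulsed with 15-mer overlapping neoantigen peptide pools at 2.5–10 μg/mL, with IL-15 and IL-2 support. Cells were restimulated on day 11, then TNFα/IFNγ double-positive CD8+ and CD4+ frequencies read by flow. Positive means ≥3-fold over DMSO and ≥0.01%.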

Molecule	Maximum fold change over negative control ([1]; TNFα+IFNγ+CD8+ T cells, highest across PBMC donors evaluated)	Maximum frequency of TNFα^+IFNγ^+CD8^+ T cells (Percent) ([1]; greatest frequency among all tested PBMC donors) [%]	Immunogenic ([1]; patient PBMC restimulation)	Max. Fold Change over background CD4+ TNFαINFγ double positive DP [2]	Max. Fold Change over background CD8+ TNFαINFγ double positive DP [2]	Max. Frequency of CD4+ TNFαINFγ DP [2]	Max. Frequency of CD8+ TNFαINFγ DP [2]	Maximum Fold Change Over Background CD4+ cells [2]	Maximum Fold Change Over Background CD8+ cells [2]	Maximum Frequency of TNFα/IFNγ Double Positive CD4+ T cells [2]	Maximum Frequency of TNFα/IFNγ Double Positive CD8+ T cells [2]
P27 (LHPQRETFTPRWSGANYWKLAFPVGAEGTFPAAATQRGVVRPA; listed as Homo sapiens) [Peptide P27]	3.43	0.430	Yes								
B1				78.51	4.96	0.61	0.07				
B2				129.8	1544.74	0.49	58.7				
B3								36.13	8.89	0.04	0.16
B4								7.15	1.89	0.04	0.08
B5				293.94	4.72	1.48	0.09				
B6								50.19	5.56	0.39	0.1
B7				60.93	11.32	0.23	0.43				
B8				128.76	6.35	0.18	0.6				
B9								111.97	4.17	0.87	0.08
B10				113.91	4.02	0.43	0.35				
B11								4.89	7.92	0.04	0.38
B12				7.86	2.61	0.11	0.1				
B13				184.87	6.85	0.63	0.1				
B14				9.48	16.25	0.01	0.26				
